The values that follow are results of earlier work, collected in patent publication US20130252257A1, “QUANTIFICATION OF CIRCULATING STEM AND PROGENITOR CELLS AS A MEANS OF ASSESSING EFFICACY OF NATUROPATHIC INTERVENTIONS” (Creative Medical Health, Inc., priority 2011, published 2013).

Read-outs that look alike come from different tables or passages of the source.

One series relates to circulating EPC. To be noted: in vivo.
Series [1] has as its system endothelial responsiveness.
The test system of series [2] is endothelial progenitor cells (EPC). To be noted: in addition to mobilizing HSC.
A further series concerns large anterior wall AMI. To be noted: 41 patients with large anterior wall AMI.
The next series has as its system myocardial infarct. To be noted: 114 patients, 56 treated and 58 control.
The test system of series [3] is ST-elevation myocardial infarction. Particulars: 6 days of G-CSF at 10 μg/kg.

With `CC(C)c1nc(N(C)S(C)(=O)=O)nc(-c2ccc(F)cc2)c1/C=C/[C@@H](O)C[C@@H](O)CC(=O)O` [Crestor], in the series with circulating EPC, the “circulating EPC levels” value is listed as “increase circulating EPC levels”.
For “growth hormone: growth hormone, used in antiaging medicine; clinically-applicable mobilizer”, the endothelial responsiveness entry in series [1] (healthy volunteers) and in series [1] (patients with congestive heart failure) was “improve endothelial responsiveness” in each case.

B1: G-CSF: Granulocyte colony stimulating factor, used clinically for mobilization of hematopoietic stem cells (protein, UniProt P09919 31-207, looked up)
Granulocyte …: TPLGPASSLPQSFLLKCLEQVRKIQGDGAALQEKLVSECATYKLCHPEELVLLGHSLGIPWAPLSSCPSQALQLAGCLSQLHSGLFLYQGLLQALEGISPELGPTLDTLQLDVADFATTIWQQMEELGMAPALQPTQGAMPAFASAFQRRAGGVLVASHLQSFLEVSYRVLRHLAQP
For B1, the “mobilization of EPC” value in series [2] was “stimulates mobilization of EPC”. For the same molecule, in the series with large anterior wall AMI, the “left ventricle ejection fraction (LVEF)” value is “improvement” and the pathological remodeling entry is given as “diminished pathological remodeling”. Also, the “infarct size, left ventricular function, or coronary restenosis” value in the series with myocardial infarct is “no influence”. For the same molecule, in series [3] (in comparison to controls), the ejection fraction result is given as “Statistically significant improvements” and the pathological remodeling entry was “inhibition of pathological remodeling”. The “myocardial wall at the area of infarct” value in series [3] (four months after infarct, versus controls, sustained over a year) is recorded as “thicker myocardial wall”.
